# Reference: PMC4974627 (Biochemistry, 2016)
# B1: Arabidopsis thaliana S-nitrosoglutathione reductase (AtGSNOR), CysSH-treated control (unmodified) (enzyme)
# chain: ATQGQVITCKAAVAYEPNKPLVIEDVQVAPPQAGEVRIKILYTALCHTDAYTWSGKDPEGLFPCILGHEAAGIVESVGEGVTEVQAGDHVIPCYQAECRECKFCKSGKTNLCGKVRSATGVGIMMNDRKSRFSVNGKPIYHFMGTSTFSQYTVVHDVSVAKIDPTAPLDKVCLLGCGVPTGLGAVWNTAKVEPGSNVAIFGLGTVGLAVAEGAKTAGASRIIGIDIDSKKYETAKKFGVNEFVNPKDHDKPIQEVIVDLTDGGVDYSFECIGNVSVMRAALECCHKGWGTSVIVGVAASGQEISTRPFQLVTGRVWKGTAFGGFKSRTQVPWLVEKYMNKEIKVDEYITHNLTLGEINKAFDLLHEGTCLRCVLDTSK
# Biological target: the molecule itself
# Test: native MS
protein,measurement,value
B1,stoichiometry N,2
